Where “and” joins values, the source holds several entries; their conditions need not be identical. Identical values can stand only once.
B1: N-terminal His-tagged L-arabinose isomerase (L-AI) from Enterococcus faecium DBFIQ E36 (enzyme, UniProt Q3Y1E5 1-474, looked up)
chain: MLNIGEKEFWFVVGSQHLYGEEALREVKKHAQEMVDELNENGQLPYPIRLQELAVTADTITKIMKEVNYREEVAGVITWMHTFSPAKMWIRGTKLLQKPLLHLATQYNESIPWKTIDMDFMNLNQSAHGDREYGFINARLNKQNKIVVGYWKRPEIQKEIADWMDVAVAYNESFGIKVARFGDNMRNVGVTEGDKVEAQIQFGWTVDYFGIGDLVQVIDRVSDEEVDQLFEEYKELYTFDYGDYEEKTWEEHVKVQAQQEIGIRRFLEEGGYNAFTTNFEDLYGMKQLPGLAVQRLMAEGYGFAGEGDWKTAAIDRLLKIMARGKDTGFMEDYTYELASGQEAILESHMMEVDPTLAATKPRIVVSPLSMGDREDPARLVFDGKAGEGVVVSMADFGTHYKLLINEVEAFEPTTEAPNLPVARVLWKTKPNFHEGVHSWIQAGGGHHTVVSLNLTTDQIETWAKLVELETVVIR
notes: codon-optimised synthetic gene; the construct has 481 aa including the initial methionine (MW 55,036); also called N-His-L-AI; recombinant L-AI; not shown: His6, N-terminal, kept
B2: C-terminal His-tagged L-arabinose isomerase (L-AI) from Enterococcus faecium DBFIQ E36 (enzyme, UniProt Q3Y1E5 1-474, looked up)
chain: B1 chain
notes: codon-optimised synthetic gene; the construct has 482 aa including the initial methionine (MW 55,221); also called C-His-L-AI; recombinant L-AI; not shown: His6, C-terminal, kept

Target: the molecule itself
Assay: AUC; sedimentation velocity, 20 °C, 50 mM sodium phosphate buffer pH 7.0, absorbance at 285 nm, c(s) by SEDFIT; distributions shown for 0.43 g L^-1 N-His-L-AI and 0.3 g L^-1 C-His-L-AI; self-association, monomer to oligomers

| Protein | stoichiometry N |
| --- | --- |
| B1 | 4 and 6 |
| B2 | 3 and 6 |
